Common to all, as to conditions: protein: recombinant; tags: N-terminal His-SUMO removed by TEV; label: 5'-6-FAM; predicted intramolecular fold
Data set [1] concerns the target T1, PARP4 BRCT WT (human, UniProt Q9UKK3 1-100).
T1 sequence: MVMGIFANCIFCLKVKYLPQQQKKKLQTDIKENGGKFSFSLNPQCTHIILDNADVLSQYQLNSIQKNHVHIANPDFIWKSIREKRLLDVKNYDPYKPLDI
Briefly: FP; 30 nM probe, probe concentration comparison; FP: 50 mM Tris pH 7.5, 50 mM NaCl, 1 mM MgCl2, 0.05% NP40, 2 mM DTT, 5% glycerol, 25 ug/ml BSA, room temp 30 min; EMSA: 50 mM Tris pH 7.5, 50 mM NaCl, 4% Ficoll PM400, 0.05% NP40, 2 mM DTT, 0-18 uM protein, room temp 30 min, gel at 4 C.

Data set [2] has as its target T1, PARP4 BRCT WT. Briefly: FP; 3 nM probe, probe concentration comparison; FP: 50 mM Tris pH 7.5, 50 mM NaCl, 1 mM MgCl2, 0.05% NP40, 2 mM DTT, 5% glycerol, 25 ug/ml BSA, room temp 30 min; EMSA: 50 mM Tris pH 7.5, 50 mM NaCl, 4% Ficoll PM400, 0.05% NP40, 2 mM DTT, 0-18 uM protein, room temp 30 min, gel at 4 C. A general note: In EMSA bound probe runs differently from free probe, usually more slowly.

The target in data set [3] is T2, PARP4 BRCT-WGR-CAT K23/24Q (human, UniProt Q9UKK3 1-573, K23Q;K24Q).
T2 sequence: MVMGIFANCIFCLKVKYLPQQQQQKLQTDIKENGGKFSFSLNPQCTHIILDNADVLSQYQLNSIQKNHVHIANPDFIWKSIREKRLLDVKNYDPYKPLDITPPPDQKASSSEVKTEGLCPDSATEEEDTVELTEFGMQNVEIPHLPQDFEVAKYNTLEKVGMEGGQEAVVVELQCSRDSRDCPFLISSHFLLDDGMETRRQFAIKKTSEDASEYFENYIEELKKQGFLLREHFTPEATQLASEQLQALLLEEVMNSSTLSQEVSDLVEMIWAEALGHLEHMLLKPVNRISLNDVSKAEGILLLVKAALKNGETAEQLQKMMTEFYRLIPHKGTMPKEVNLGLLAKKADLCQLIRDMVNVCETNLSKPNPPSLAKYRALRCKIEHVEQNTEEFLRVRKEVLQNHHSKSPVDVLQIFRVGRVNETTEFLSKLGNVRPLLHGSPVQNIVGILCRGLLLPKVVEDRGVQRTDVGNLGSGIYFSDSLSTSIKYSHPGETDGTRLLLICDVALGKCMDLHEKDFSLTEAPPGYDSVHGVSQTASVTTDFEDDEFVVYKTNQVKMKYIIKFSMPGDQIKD
Briefly: EMSA; 20 nM probe; rough estimate; FP: 50 mM Tris pH 7.5, 50 mM NaCl, 1 mM MgCl2, 0.05% NP40, 2 mM DTT, 5% glycerol, 25 ug/ml BSA, room temp 30 min; EMSA: 50 mM Tris pH 7.5, 50 mM NaCl, 4% Ficoll PM400, 0.05% NP40, 2 mM DTT, 0-18 uM protein, room temp 30 min, gel at 4 C.

The values that follow come from PMC12212138, “Crystal structure and mutagenesis of a nucleic acid–binding BRCT domain in human PARP4”.

In general, Kd refers to the constant that tells how readily two partners part at equilibrium.

B1: vtRNA1-3 (structured_RNA)
RNA: GGCUGGCUUUAGCUCAGCGGUUACUUCGCGUGUCAUCAAACCACCUCUCUGGGUUGUUCGAGACCCGCGGGCGCUCUCCAGCCCUCUU
Turning to B1, the Kd is 18 ± 3 µM in data set [1], 19 ± 3 µM in data set [2] and roughly 54 µM in data set [3].
